# Assay results: US20250206828A1, “ANTI-ADENOSINE RECEPTOR (A2aR) ANTIBODIES AND THE USE THEREOF” (Adept Therapeutics Inc., priority 2022, published 2025)
# Target: T1, human adenosine A2A receptor (A2aR) (human, UniProt P29274 1-412)
# T1 construct: Assays used HEK293 cells stably overexpressing human A2aR (BPS Bioscience 79381), human A2aR-expressing CHO cells, or endogenous A2aR on human PBMC; also called human A2aR; hA2aR
# Assay: flow cytometry, HEK293-hA2aR cells, supernatant 1 ug/ml
# T1 sequence (P29274 whole entry): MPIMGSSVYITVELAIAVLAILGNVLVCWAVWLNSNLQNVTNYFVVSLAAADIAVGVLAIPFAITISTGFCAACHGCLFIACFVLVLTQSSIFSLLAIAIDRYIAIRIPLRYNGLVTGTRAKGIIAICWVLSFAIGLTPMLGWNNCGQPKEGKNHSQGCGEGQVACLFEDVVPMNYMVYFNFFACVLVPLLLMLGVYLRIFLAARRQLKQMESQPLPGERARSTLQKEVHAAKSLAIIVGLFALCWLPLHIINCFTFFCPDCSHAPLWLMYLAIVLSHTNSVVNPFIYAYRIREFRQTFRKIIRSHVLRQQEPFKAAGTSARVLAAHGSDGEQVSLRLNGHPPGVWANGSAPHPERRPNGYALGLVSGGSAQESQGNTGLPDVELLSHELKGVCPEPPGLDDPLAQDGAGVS
row,Binder,MFI
1,"Hu1B5-H6/Hu1B5-L3 (antibody, human IgG1, V domains shown, Human IgG1 FES (L234F, L235E, P331S) and human Ig kappa constant domains) VH: EVQLVQSGAEVKKPGESLRISCKTSGFTFTRFWMNWVRQMPGKGLEWIGRIDPYDSETQYNHKFWDHATLSVDKSSSTVYLQWSSLKASDTAMYYCGRSLYGKGDYWGQGTTVTVSS VL: DVVMTQSPLSLPVTLGQPASISCRSSQSIVHSNGNTYLEWYQQRPGQSPRLLIYKVSNRFSGVPDRFSGSGSGTDFTLKISRVEAEDVGVYYCFQGSHVPLTFGGGTKVEIK",1910 MFI
2,"Hu1B5-H5/Hu1B5-L5 (antibody, human IgG1, V domains shown, Human IgG1 FES (L234F, L235E, P331S) and human Ig kappa constant domains) VH: EVQLVQSGAEVKKPGASVKVSCKTSGFTFTRFWMNWVRQAPGQGLEWIGRIDPYDSETQYAHKFWDRATLTVDKSSSTVYMELSSLRSEDTAVYYCGRSLYGKGDYWGQGTTVTVSS VL: DIVMTQSPDSLAVSLGERATINCRSSQSIVHSNGNTYLEWYQQKPGQPPKLLIYKVSNRFSGVPDRFSGSGSGTDFTLTISSLQAEDVAVYYCFQGSHVPLTFGGGTKVEIK",823 MFI
3,"Hu1B5-H2/Hu1B5-L3 (antibody, human IgG1, V domains shown, Human IgG1 FES (L234F, L235E, P331S) and human Ig kappa constant domains) VH: EVQLVQSGAEVKKPGASVKVSCKTSGFTFTRFWMNWVRQAPGQGLEWMGRIDPYDSETQYNHKFWDRVTMTVDTSTSTVYMELSSLRSEDTAVYYCGRSLYGKGDYWGQGTTVTVSS VL: DVVMTQSPLSLPVTLGQPASISCRSSQSIVHSNGNTYLEWYQQRPGQSPRLLIYKVSNRFSGVPDRFSGSGSGTDFTLKISRVEAEDVGVYYCFQGSHVPLTFGGGTKVEIK",1870 MFI
4,"Hu1B5-H1/Hu1B5-L3 (antibody, human IgG1, V domains shown, Human IgG1 FES (L234F, L235E, P331S) and human Ig kappa constant domains) VH: QVQLVQSGAEVKKPGASVKVSCKASGFTFTRFWMNWVRQAPGQGLEWMGRIDPYDSETQYNHKFWDRVTMTRDTSTSTVYMELSSLRSEDTAVYYCGRSLYGKGDYWGQGTTVTVSS VL: DVVMTQSPLSLPVTLGQPASISCRSSQSIVHSNGNTYLEWYQQRPGQSPRLLIYKVSNRFSGVPDRFSGSGSGTDFTLKISRVEAEDVGVYYCFQGSHVPLTFGGGTKVEIK",1840 MFI
5,"Hu1B5-H5/Hu1B5-L2 (antibody, human IgG1, V domains shown, Human IgG1 FES (L234F, L235E, P331S) and human Ig kappa constant domains) VH: EVQLVQSGAEVKKPGASVKVSCKTSGFTFTRFWMNWVRQAPGQGLEWIGRIDPYDSETQYAHKFWDRATLTVDKSSSTVYMELSSLRSEDTAVYYCGRSLYGKGDYWGQGTTVTVSS VL: DVVMTQSPLSLPVTLGQPASISCRSSQSIVHSNGNTYLEWYQQRPGQSPRRLIYKVSNRFSGVPDRFSGSGSGTDFTLKISRVEAEDVGVYYCFQGSHVPLTFGGGTKVEIK",283 MFI
6,"Hu1B5-H5/Hu1B5-L3 (antibody, human IgG1, V domains shown, Human IgG1 FES (L234F, L235E, P331S) and human Ig kappa constant domains) VH: EVQLVQSGAEVKKPGASVKVSCKTSGFTFTRFWMNWVRQAPGQGLEWIGRIDPYDSETQYAHKFWDRATLTVDKSSSTVYMELSSLRSEDTAVYYCGRSLYGKGDYWGQGTTVTVSS VL: DVVMTQSPLSLPVTLGQPASISCRSSQSIVHSNGNTYLEWYQQRPGQSPRLLIYKVSNRFSGVPDRFSGSGSGTDFTLKISRVEAEDVGVYYCFQGSHVPLTFGGGTKVEIK",1950 MFI
7,"Hu1B5-H3/Hu1B5-L3 (antibody, human IgG1, V domains shown, Human IgG1 FES (L234F, L235E, P331S) and human Ig kappa constant domains) VH: EVQLVQSGAEVKKPGASVKVSCKTSGFTFTRFWMNWVRQAPGQGLEWIGRIDPYDSETQYNHKFWDRATLTVDTSSSTVYMELSSLRSEDTAVYYCGRSLYGKGDYWGQGTTVTVSS VL: DVVMTQSPLSLPVTLGQPASISCRSSQSIVHSNGNTYLEWYQQRPGQSPRLLIYKVSNRFSGVPDRFSGSGSGTDFTLKISRVEAEDVGVYYCFQGSHVPLTFGGGTKVEIK",1850 MFI
8,"Hu1B5-H4/Hu1B5-L3 (antibody, human IgG1, V domains shown, Human IgG1 FES (L234F, L235E, P331S) and human Ig kappa constant domains) VH: EVQLVQSGAEVKKPGASVKVSCKTSGFTFTRFWMNWVRQAPGQGLEWIGRIDPYDSETQYNHKFWDRATLTVDKSSSTVYMELSSLRSEDTAVYYCGRSLYGKGDYWGQGTTVTVSS VL: DVVMTQSPLSLPVTLGQPASISCRSSQSIVHSNGNTYLEWYQQRPGQSPRLLIYKVSNRFSGVPDRFSGSGSGTDFTLKISRVEAEDVGVYYCFQGSHVPLTFGGGTKVEIK",1860 MFI
9,"Hu1B5-H3/Hu1B5-L2 (antibody, human IgG1, V domains shown, Human IgG1 FES (L234F, L235E, P331S) and human Ig kappa constant domains) VH: EVQLVQSGAEVKKPGASVKVSCKTSGFTFTRFWMNWVRQAPGQGLEWIGRIDPYDSETQYNHKFWDRATLTVDTSSSTVYMELSSLRSEDTAVYYCGRSLYGKGDYWGQGTTVTVSS VL: DVVMTQSPLSLPVTLGQPASISCRSSQSIVHSNGNTYLEWYQQRPGQSPRRLIYKVSNRFSGVPDRFSGSGSGTDFTLKISRVEAEDVGVYYCFQGSHVPLTFGGGTKVEIK",231 MFI
10,"Hu1B5-H6/Hu1B5-L5 (antibody, human IgG1, V domains shown, Human IgG1 FES (L234F, L235E, P331S) and human Ig kappa constant domains) VH: EVQLVQSGAEVKKPGESLRISCKTSGFTFTRFWMNWVRQMPGKGLEWIGRIDPYDSETQYNHKFWDHATLSVDKSSSTVYLQWSSLKASDTAMYYCGRSLYGKGDYWGQGTTVTVSS VL: DIVMTQSPDSLAVSLGERATINCRSSQSIVHSNGNTYLEWYQQKPGQPPKLLIYKVSNRFSGVPDRFSGSGSGTDFTLTISSLQAEDVAVYYCFQGSHVPLTFGGGTKVEIK",702 MFI

# The remaining lines, values ahead:
row,MFI,Binder
1,359 MFI,"Hu1B5-H6/Hu1B5-L2 (antibody, human IgG1, V domains shown, Human IgG1 FES (L234F, L235E, P331S) and human Ig kappa constant domains) VH: EVQLVQSGAEVKKPGESLRISCKTSGFTFTRFWMNWVRQMPGKGLEWIGRIDPYDSETQYNHKFWDHATLSVDKSSSTVYLQWSSLKASDTAMYYCGRSLYGKGDYWGQGTTVTVSS VL: DVVMTQSPLSLPVTLGQPASISCRSSQSIVHSNGNTYLEWYQQRPGQSPRRLIYKVSNRFSGVPDRFSGSGSGTDFTLKISRVEAEDVGVYYCFQGSHVPLTFGGGTKVEIK"
2,1910 MFI,"Hu1B5-H6/Hu1B5-L4 (antibody, human IgG1, V domains shown, Human IgG1 FES (L234F, L235E, P331S) and human Ig kappa constant domains) VH: EVQLVQSGAEVKKPGESLRISCKTSGFTFTRFWMNWVRQMPGKGLEWIGRIDPYDSETQYNHKFWDHATLSVDKSSSTVYLQWSSLKASDTAMYYCGRSLYGKGDYWGQGTTVTVSS VL: DVVMTQSPLSLPVTPGEPASISCRSSQSIVHSNGNTYLEWYLQKPGQSPQLLIYKVSNRFSGVPDRFSGSGSGTDFTLKISRVEAEDVGVYYCFQGSHVPLTFGGGTKVEIK"
3,263 MFI,"Hu1B5-H4/Hu1B5-L2 (antibody, human IgG1, V domains shown, Human IgG1 FES (L234F, L235E, P331S) and human Ig kappa constant domains) VH: EVQLVQSGAEVKKPGASVKVSCKTSGFTFTRFWMNWVRQAPGQGLEWIGRIDPYDSETQYNHKFWDRATLTVDKSSSTVYMELSSLRSEDTAVYYCGRSLYGKGDYWGQGTTVTVSS VL: DVVMTQSPLSLPVTLGQPASISCRSSQSIVHSNGNTYLEWYQQRPGQSPRRLIYKVSNRFSGVPDRFSGSGSGTDFTLKISRVEAEDVGVYYCFQGSHVPLTFGGGTKVEIK"
4,1860 MFI,"Hu1B5-H2.1/Hu1B5-L3 (antibody, human IgG1, V domains shown, Human IgG1 FES (L234F, L235E, P331S) and human Ig kappa constant domains) VH: EVQLVQSGAEVKKPGASVKVSCKTSGFTFTRFWMNWVRQAPGQGLEWIGRIDPYDSETQYNHKFWDRVTMTVDTSTSTVYMELSSLRSEDTAVYYCGRSLYGKGDYWGQGTTVTVSS VL: DVVMTQSPLSLPVTLGQPASISCRSSQSIVHSNGNTYLEWYQQRPGQSPRLLIYKVSNRFSGVPDRFSGSGSGTDFTLKISRVEAEDVGVYYCFQGSHVPLTFGGGTKVEIK"
5,225 MFI,"Hu1B5-H2.1/Hu1B5-L2 (antibody, human IgG1, V domains shown, Human IgG1 FES (L234F, L235E, P331S) and human Ig kappa constant domains) VH: EVQLVQSGAEVKKPGASVKVSCKTSGFTFTRFWMNWVRQAPGQGLEWIGRIDPYDSETQYNHKFWDRVTMTVDTSTSTVYMELSSLRSEDTAVYYCGRSLYGKGDYWGQGTTVTVSS VL: DVVMTQSPLSLPVTLGQPASISCRSSQSIVHSNGNTYLEWYQQRPGQSPRRLIYKVSNRFSGVPDRFSGSGSGTDFTLKISRVEAEDVGVYYCFQGSHVPLTFGGGTKVEIK"
6,243 MFI,"Hu1B5-H2/Hu1B5-L2 (antibody, human IgG1, V domains shown, Human IgG1 FES (L234F, L235E, P331S) and human Ig kappa constant domains) VH: EVQLVQSGAEVKKPGASVKVSCKTSGFTFTRFWMNWVRQAPGQGLEWMGRIDPYDSETQYNHKFWDRVTMTVDTSTSTVYMELSSLRSEDTAVYYCGRSLYGKGDYWGQGTTVTVSS VL: DVVMTQSPLSLPVTLGQPASISCRSSQSIVHSNGNTYLEWYQQRPGQSPRRLIYKVSNRFSGVPDRFSGSGSGTDFTLKISRVEAEDVGVYYCFQGSHVPLTFGGGTKVEIK"
